Results published in patent US20160041176A1 (NATIONAL UNIVERSITY CORPORATION NAGOYA UNIVERSITY, published 2016).
Positions count from the first letter of the chain named.

Assays:
[1] = biological target: F-actin (filamentous actin); assay: actin cosedimentation, 1 µM GST-CT2 with 0-2.5 µM F-actin, Scatchard analysis
[2] = system: T1, Girdin CT-V5 SA mutant (serine 1416 replaced with alanine)
T1 sequence: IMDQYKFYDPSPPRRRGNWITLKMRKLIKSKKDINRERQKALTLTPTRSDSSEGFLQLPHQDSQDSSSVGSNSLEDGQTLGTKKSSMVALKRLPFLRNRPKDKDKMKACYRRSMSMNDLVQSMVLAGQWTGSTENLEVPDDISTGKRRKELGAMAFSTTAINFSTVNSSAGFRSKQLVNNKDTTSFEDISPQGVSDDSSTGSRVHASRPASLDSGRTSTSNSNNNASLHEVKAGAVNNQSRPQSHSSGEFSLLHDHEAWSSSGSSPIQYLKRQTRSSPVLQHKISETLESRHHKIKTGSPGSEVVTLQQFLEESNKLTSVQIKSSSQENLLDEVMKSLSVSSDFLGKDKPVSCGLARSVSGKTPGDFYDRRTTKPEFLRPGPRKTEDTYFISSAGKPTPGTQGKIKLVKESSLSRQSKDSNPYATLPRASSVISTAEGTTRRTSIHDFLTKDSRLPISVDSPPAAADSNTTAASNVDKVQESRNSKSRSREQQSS

[3] = system: T2, GST-CT (GST-fused CT domain of Girdin)
T2 sequence: T1 sequence with A41S

[4] = system: T3, coiled-coil domain of Girdin tagged with V5
T3 sequence: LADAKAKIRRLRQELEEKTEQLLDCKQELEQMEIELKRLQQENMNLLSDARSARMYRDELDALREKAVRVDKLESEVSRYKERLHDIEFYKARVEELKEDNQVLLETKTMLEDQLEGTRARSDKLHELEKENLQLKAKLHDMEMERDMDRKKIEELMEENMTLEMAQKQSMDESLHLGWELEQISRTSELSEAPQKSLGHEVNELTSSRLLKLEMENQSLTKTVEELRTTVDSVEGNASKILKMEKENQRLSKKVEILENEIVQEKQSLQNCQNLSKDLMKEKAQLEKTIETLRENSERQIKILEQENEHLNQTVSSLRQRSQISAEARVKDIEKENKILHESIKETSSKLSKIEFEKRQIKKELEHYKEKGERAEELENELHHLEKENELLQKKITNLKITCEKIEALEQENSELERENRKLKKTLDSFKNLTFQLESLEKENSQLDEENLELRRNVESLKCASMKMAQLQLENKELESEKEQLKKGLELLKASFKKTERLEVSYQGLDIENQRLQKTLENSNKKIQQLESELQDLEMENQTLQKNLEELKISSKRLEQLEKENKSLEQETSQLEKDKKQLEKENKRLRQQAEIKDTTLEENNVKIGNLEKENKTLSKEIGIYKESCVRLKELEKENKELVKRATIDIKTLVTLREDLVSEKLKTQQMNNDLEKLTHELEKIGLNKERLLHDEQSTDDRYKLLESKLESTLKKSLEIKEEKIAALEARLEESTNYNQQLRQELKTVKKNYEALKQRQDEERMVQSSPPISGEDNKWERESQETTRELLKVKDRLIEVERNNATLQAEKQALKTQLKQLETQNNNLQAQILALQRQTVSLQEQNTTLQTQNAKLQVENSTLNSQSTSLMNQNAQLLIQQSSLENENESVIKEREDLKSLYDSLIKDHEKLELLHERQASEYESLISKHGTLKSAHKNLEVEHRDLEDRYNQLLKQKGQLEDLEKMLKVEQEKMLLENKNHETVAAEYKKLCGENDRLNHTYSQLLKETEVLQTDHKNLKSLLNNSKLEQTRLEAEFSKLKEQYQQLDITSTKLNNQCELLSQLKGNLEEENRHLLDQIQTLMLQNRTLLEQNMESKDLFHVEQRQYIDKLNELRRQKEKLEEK

[5] = system: T4, Girdin CT-V5 wild type (WT)
T4 sequence: T1 sequence with A41S

[6] = system: T5, V5 epitope-tagged NT domain of Girdin (NT-V5)
T5 sequence: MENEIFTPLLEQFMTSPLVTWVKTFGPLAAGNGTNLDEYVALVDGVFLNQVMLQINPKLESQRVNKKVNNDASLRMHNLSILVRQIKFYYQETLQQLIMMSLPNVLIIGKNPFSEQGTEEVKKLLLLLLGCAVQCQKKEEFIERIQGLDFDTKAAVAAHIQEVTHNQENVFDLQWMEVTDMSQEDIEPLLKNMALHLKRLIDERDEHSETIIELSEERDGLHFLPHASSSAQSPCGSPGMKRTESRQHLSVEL

[7] = biological target: the molecule itself; assay: expression in COS7 cells, coimmunoprecipitation (data not shown)

glutathione S-transferase (GST)-fused CT2 of Girdin (GST-CT2) (from UniProt Q3V6T2 1624-1871)
Kd [1]: 1030 nM

recombinant active Akt (Upstate)
in vitro kinase assay (phosphorylation, autoradiography) [2]: but not its Ser-1416 substituted with Ala mutant (SA), was phosphorylated by active Akt
in vitro kinase assay (phosphorylation detected by anti-P-Girdin antibody) [3]: Purified GST-CT was effectively phosphorylated by Akt in vitro
in vitro kinase assay (phosphorylation, autoradiography) [4]: neither the NT nor the coiled-coil domain of Girdin was phosphorylated by Akt in vitro
in vitro kinase assay (phosphorylation, autoradiography) [5]: Girdin CT wild type (WT) ... was phosphorylated by active Akt
in vitro kinase assay (phosphorylation, autoradiography) [6]: neither the NT nor the coiled-coil domain of Girdin was phosphorylated by Akt in vitro

B1: CT domain of Girdin (expressed in cells, oligomerisation test) (other)
chain: T1 sequence with A41S
binding result [7]: no binding
